Results taken from US20180125921A1, “USE OF QBP1 PEPTIDE FOR THE INHIBITION OF MEMORY CONSOLIDATION” (CONSEJO SUPERIOR DE INVESTIGACIONES CIENTÍFICAS, priority 2015, published 2018).

Target: Orb2A PLD (Drosophila), Q9VSR3
Test: cell-based or functional assay

Ac-WKWWPGIF-NH2 [minimal active core of QBP1 (QBP1 fragment), Ac-WKWWPGIF-NH2] was tested, and the formation of M (mechanostable) conformers, AFM-SMFS was 16.1%.
